No end group written: not given here.
How the values were obtained:
RIα D/D (a.a.#1-81) = target: T1, RIα D/D (a.a.#1-81) (Bos taurus, UniProt P00514); assay: Ni-NTA pulldown with His-RIα D/D; type: binding, bovine; conditions: 300 mM NaCl buffers
T1 construct: made in house; host or cells: E. coli BL21(DE3); template pRSETB-RIα from Dr. Susan Taylor
From the text: (§1) Most AHs are mono-specific to RIIα D/D except a few that are either RIα D/D-specific (Angelo and Rubin, 1998; Means et al., 2011; Welch et al., 2010) or dual specific, binding to both (Huang et al., 1997; Jarnaess et al., 2008). To test if hAsh2 AH can cross-react with PKA's D/D, we created constructs expressing the D/D domain and the flanking sequences from bovine RIα (a.a.#1-81) and mouse RIIα (a.a.#1-64). His-RIα D/D or His-RIIα D/D was co-expressed with GST-RSP396-180, which contains the AH (RSP3160-178) that bind RII in the overlay assay (Gaillard et al., 2001). […] In the eluate, the ratio of RSP396-180-RIα D/D was the lowest, followed by RSP396-180-RIIα D/D and then RSP396-180-RIIα D/D from RSP7, the de facto partner of RSP3. Although RSP396-180 in the extract was also the most concentrated when co-expressed with RSP7's RIIα, this likely is due to effective binding of RSP7's D/D, protecting GST-RSP396-180 from proteolysis, which occurred when GST-RSP396-180 was expressed by itself (not shown). […]
Although both RIα D/D and Dpy-30 D/D have a common α0 helix (Wang et al., 2009), GST-hAsh2593-623 cross reacted with RIα D/D poorly. […] To test this, the samples from repeated experiments were analyzed in the non-reducing SDS-PAGE. […]

RIIα D/D (a.a.#1-64) = target: T2, RIIα D/D (a.a.#1-64) (Mus musculus, UniProt P12367, S2G); assay: Ni-NTA pulldown with His-RIIα D/D; type: binding; conditions: 300 mM NaCl buffers
T2 construct: made in house; host or cells: E. coli BL21(DE3); template pRSETB-RIIα from Dr. Susan Taylor
T2 sequence (P12367 1-64 S2G limits assumed): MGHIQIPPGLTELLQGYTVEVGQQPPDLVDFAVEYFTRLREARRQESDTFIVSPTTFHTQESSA
From the text: as §1, with “shown). Similarly, when co-expressed with GST-hAsh2593-623, RIα D/D and RIIα D/D were depleted in the flow through but few polypeptides, especially RIIα D/D, were present in the eluate (FIG. 12A, right panel, compare Extract, Post and Elute).” for “shown).”

Dpy-30 [1] = target: T3, Dpy-30 (Homo sapiens, UniProt Q9C005); assay: Ni-NTA pulldown of GST-hAsh2 peptides with His-Dpy-30; type: binding; parameters: Dpy-30 fragments, full length or a.a.#49-99, were amplified using purchased IMAGE cDNA clone #4081996 as a template; made in house; host or cells: E. coli BL21(DE3); key to co-purified with Dpy-30: “+” or “−” indicates if the peptides were or were not evidently co-purified with Dpy-30; “+” or “−” indicates if the peptides were or were not evidently co-purified with Dpy-30
T3 sequence (Q9C005 whole entry, the tested form may be a part): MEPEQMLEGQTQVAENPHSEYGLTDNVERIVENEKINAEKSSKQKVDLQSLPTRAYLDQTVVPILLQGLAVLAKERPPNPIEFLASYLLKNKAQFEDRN
From the text: To test this, we performed pull down assays for His-Dpy-30 and GST-hAsh2593-623. The human Ash2 fragment contains a helix with two typical and three atypical ΦΦXX motifs. The hAsh2 DNA was fused downstream to GST DNA by PCR and the product was cloned into an expression vector. Three clones—#9 and #14 with the expected in-frame fusion and #6 with an out-of-frame fusion—were expressed in bacteria. Their extract was mixed with equal volume of bacterial extract with His-Dpy-30; and the mixture was subjected to Ni-NTA purification. […] Thus hAsh2593-623 interacts with Dpy-30 specifically.
Table 3 illustrates the protein sequences of hAsh2's C-terminal region (hAsh2593-623) and its variants, where “+” or “−” indicates if the peptides were or were not evidently co-purified with Dpy-30. The shorter fusion protein GST-hAsh2593-617 that terminated right after the last possible ΦΦXX-like motif, VETE (SEQ ID NO:35), in the helix was also co-purified with His-Dpy-30 (FIG. 11B, arrow and double arrowheads), no matter expressed separately or co-expressed. Both polypeptides were depleted in the flow through of Ni-NTA matrix (Post in FIG. 11B) and retained in the eluate.
All expression constructs were transformed or co-transformed into BL21(DE3) cells. The colonies were selected based on the antibiotic-resistant gene in each plasmid. The cultures were induced with 1 mM IPTG overnight at 18° C. The cell pellet from a 5-ml culture was resuspended in 750-μl lysis buffer supplemented with Complete Mini EDTA-free protease inhibitor cocktail tablets (Roche) and the suspension was sonicated on ice using Branson digital Sonifier until clarified (Emerson Industrial Automation). The sonicated mixtures were centrifuged at 4° C., 12,000 rpm for 25 min. The supernatant or combinations of supernatants as indicated were incubated with ˜100 μl Ni-NTA (Qiagen or Clontech) or Glutathione Sepharose 4B (Amersham Biosciences) for 1 hour at room temperature. The matrix was subsequently washed as instructed by manufacturers, unless indicated otherwise.
Bacterial extract, flow through and eluate in 1× Laemmli samples buffer were boiled for 5 min. In general, 10 μl samples were loaded in each lane in 4-20% precast acrylamide gels (Bio-Rad or DGEL Electrosystem, Canada) or 14% manually cast gels.

[2] = target: T4, Dpy-30 domain only (Dpy-3045-99) (Homo sapiens, UniProt Q9C005); assay: Ni-NTA pulldown of GST-tagged RSP3 peptides with the Dpy-30 domain only; type: binding
T4 construct: made in house; host or cells: E. coli BL21(DE3), co-expressed with the GST-RSP3 peptides
T4 sequence (Q9C005 45-99): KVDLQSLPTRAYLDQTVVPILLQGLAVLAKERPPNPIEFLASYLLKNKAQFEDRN
Method: (§2) The experiments were further conducted on smaller segments within a.a.#269-316. GST-RSP3280-316 and GST-RSP3280-308, but not GST-RSP3280-306, were also pulled down by His-Dpy-30 (FIG. 7E, left panel). […] To ensure that the co-purification occurs through the Dpy-30 domain rather than its flanking sequence, the same experiment was conducted with the Dpy-30 domain only (Dpy-3045-99, Wang et al., 2009). The results from the experiments using Dpy-30 domain alone or full-length Dpy-30 protein were similar (FIG. 7E, right panel). Based on the similar dimensions of the RIIa and Dpy-30 domains (FIG. 1), we tested if the Dpy-30 binding peptide is centered on the 18-a.a. helix at the a.a.#291-308 by mutating V300 in the middle of the region into P, a strategy used to study AHR (Gaillard et al., 2001; Carr et al., 1992). […] RSP3291-308.
For Ni-NTA (Qiagen) affinity co-purification, GST-tagged RSP3 constructs and His-tagged HDpy-30 constructs were co-transformed into BL21(DE3) cells. The recombinant proteins were induced using 1 mM IPTG overnight at 16° C. Following induction, the cell pellet from a 5-ml culture was resuspended in 750 μl lysis buffer and sonicated using Branson digital Sonifier (Emerson Industrial Automation). The sonicated mixtures were centrifuged at 4° C., 12,000 rpm for 25 min. The supernatant was incubated with 100 μl Ni-NTA for 1 hour at room temperature. […]

Dpy-30 [3] = target: T3, Dpy-30; assay: Ni-NTA pulldown of GST-tagged RSP3 peptides with His-tagged human Dpy-30 protein; type: binding; parameters: made in house; host or cells: E. coli BL21(DE3), co-expressed with the GST-RSP3 peptides; conditions: full-length human His-Dpy-30 co-expressed with GST-RSP3 peptide
From the text: (§3) Based on the phenotypes of RSP3 transgenic strains (FIG. 4), an in vitro approach was taken to test that RSP3269-316 contains a Dpy-30 domain binding site. RIIa-binding AHs are 14-18-a.a. long. Some of AHs are clearly comprised of ΦΦXX repeats in which the first two residues are hydrophobic residues (Φ) positioned to interact with complementary residues at the binding grooves of the RIIa domain (Burns-Hamuro et al., 2003; Kinderman et al., 2006; Sarma et al., 2010), whereas for the other RIIa-binding AHs the repeats are not as evident (Gold et al., 2006; Gaillard et al., 2001). Typical ΦΦXX repeats were noted within the Dpy-30 binding fragment in BIG1 at the trans-Golgi network but were not tested yet (Xia et al., 2010). For RSP3269-316, typical and degenerate ΦΦXX repeats are present throughout this region, thus the precise Dpy-30 binding site was determined objectively by Ni-NTA pulldown. As a control, the His-tagged RIIa domain from RSP7 was co-expressed with the GST-tagged RSP396-180 that harbors AHR at a.a.#161-178 (Gaillard et al., 2001; FIG. 3) and both polypeptides were co-purified by Ni-NTA (FIG. 7A). Various Dpy-30 domain containing RSP2 and RSP23 polypeptides were tested but were not compatible for this assay due to poor expression or precipitation propensity. Therefore we used the His-tagged human Dpy-30 protein for Ni-NTA pulldown instead. As expected, both GST-RSP3245-316 and GST-RSP3269-316 were co-purified with His-Dpy-30 by Ni-NTA (FIGS. 7B and 7C). In contrast, the GST control was not co-purified (FIG. 7D).
as §2
For Ni-NTA (Qiagen) affinity co-purification, GST-tagged RSP3 constructs and His-tagged HDpy-30 constructs were co-transformed into BL21(DE3) cells. The recombinant proteins were induced using 1 mM IPTG overnight at 16° C. Following induction, the cell pellet from a 5-ml culture was resuspended in 750 μl lysis buffer and sonicated using Branson digital Sonifier (Emerson Industrial Automation). The sonicated mixtures were centrifuged at 4° C., 12,000 rpm for 25 min. The supernatant was incubated with 100 μl Ni-NTA for 1 hour at room temperature. The matrix was subsequently washed thrice and elution was carried out as instructed by the manufacturer.

RIIa domain from RSP7 = assay: Ni-NTA pulldown with His-tagged RIIa domain from RSP7; type: binding, Chlamydomonas; conditions: co-expressed in bacteria
From the text: as §3
Based on the structural similarity, we tested for the cross-recognition of His-Dpy-30 and AHR (GST-RSP3g); and RSP7's RIIa and AHD (GST-RSP3280-308) by the described Ni-NTA pulldown assay. […] Thus Dpy-30 that has a deep pocket from an additional α-helix recognizes both AHR and AHD, whereas RSP7's RIIa, as PKA's RII, only binds RSP3's AHR(Gaillard et al., 2001). […]

T1 sequence (P00514 1-81): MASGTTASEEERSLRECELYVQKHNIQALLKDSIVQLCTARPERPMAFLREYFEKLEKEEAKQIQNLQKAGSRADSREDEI

| Molecule | co-purification with His-RIα D/D (RIα D/D (a.a.#1-81)) | co-purification with His-RIIα D/D (RIIα D/D (a.a.#1-64)) | co-purified with Dpy-30 (Dpy-30 [1]; GST-fused hAsh2 peptides, Ni-NTA pulldown, Coomassie-stained SDS-PAGE) | co-purification with His-Dpy-30 (Dpy-30 [1]; full-length His-Dpy-30, Ni-NTA, result in words) | binding to the Dpy-30 domain [2] | co-purification / pulldown with His-Dpy-30 (Dpy-30 [3]) | co-purification / pulldown with His-RIIa from RSP7 (RIIa domain from RSP7) | co-purification / pulldown with His-RIIa from RSP7 (RIIa domain from RSP7; listed as GST-RSP390-180) |
| --- | --- | --- | --- | --- | --- | --- | --- | --- |
| PMSDMGWGAVVKHTLADVLYHVETEVDGRRS (also: GST fusion) [E604K, GST-hAsh2593-623 with E604 mutated to K] | not | substantially enhanced the pulldown | + | still pulled down substantially |  |  |  |  |
| V300P: GST-tagged RSP3280-316 with V300 mutated into P (PWLKEQAIGYLARGVVARRVPDKLVEDAAAALAANRS; also: GST tag) |  |  |  |  | abrogated the binding | abrogated the binding |  |  |
| RSP396-180: GST-tagged RSP3 fragment a.a. 96-180 that harbors the RIIa-binding AHR at a.a.#161-178 (protein, left off: a dimerising Fc or GST) HIDIQTDVYLEELTDTVPEADTSTQTDAFLDRPPTPLFVPQKTGTDAITQIENGDLFDFDFEVEPILEVLVGKVLEQGLMEVLEE | the lowest |  |  |  |  | pulled down | co-purified | most efficient |

Source: patent US9856300B2, “Dpy-30 binding peptides and methods of use” (Marquette University, priority 2011, dated 2018)
